# In patent US20060099650A1 (UNIVERSITY OF MASSACHUSETTS, published 2006):
# B1: PorinB from Neisseria meningitidis (ligand)
# chain: DVTLYGTIKAGVETSRSVFHQNGQVTEVTTATGIVDLGSKIGFKGQEDLGNGLKAIWQVEQKASIAGTDSGWGNRQSFIGLKGGFGKLRVGRLNSVLKDTGDINPWDSKSDYLGVNKIAEPEARLISVRYDSPEFAGLSGSVQYALNDNAGRHNSESYHAGFNYKNGGFFVQYGGAYKRHHQVQEGLNIEKYQIHRLVSGYDNDALYASVAVQQQDAKLTDASNSHNSQTEVAATLAYRFGNVTPRVSYAHGFKGLVDDADIGNEYDQVVVGAEYDFSKRTSALVSAGWLQEGKGENKFVATAGGVGLRHKF
# modifications: biotinylated in the binding assays (sites not given); not stated as biotinylated in the reporter assay
# notes: also called biotinylated PorinB; biotinylated Porin
# Target: T1, TLR4:Fc fusion protein (UniProt O00206 24-631)
# T1 construct: The composition is not described beyond 'the related TLR4:Fc'; also called the TLR4 fusion protein; not shown: Fc part; not described for TLR4:Fc (only 'related' to TLR2:Fc, which carries mouse IgG2a Fc)
# T1 sequence (O00206 24-631 limits assumed): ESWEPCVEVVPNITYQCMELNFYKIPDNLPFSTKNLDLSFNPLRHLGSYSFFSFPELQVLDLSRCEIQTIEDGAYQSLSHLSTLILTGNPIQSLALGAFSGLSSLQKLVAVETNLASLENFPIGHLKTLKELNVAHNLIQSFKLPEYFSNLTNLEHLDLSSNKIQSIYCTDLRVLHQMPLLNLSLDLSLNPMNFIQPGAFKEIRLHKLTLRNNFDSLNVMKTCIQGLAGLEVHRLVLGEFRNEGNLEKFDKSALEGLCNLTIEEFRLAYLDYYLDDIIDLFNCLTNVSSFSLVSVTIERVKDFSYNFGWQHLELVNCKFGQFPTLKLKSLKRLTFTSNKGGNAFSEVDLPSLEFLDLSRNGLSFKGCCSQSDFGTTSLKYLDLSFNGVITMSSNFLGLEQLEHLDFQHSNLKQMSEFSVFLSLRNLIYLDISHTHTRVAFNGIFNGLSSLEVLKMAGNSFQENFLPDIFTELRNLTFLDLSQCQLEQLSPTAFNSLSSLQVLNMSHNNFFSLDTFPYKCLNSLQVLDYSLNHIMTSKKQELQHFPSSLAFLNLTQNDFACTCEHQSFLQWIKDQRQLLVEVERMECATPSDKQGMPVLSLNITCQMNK
# Assay: ELISA, Fc fusion plated on plastic, biotinylated ligand as probe, anti-biotin-HRP detection
binder,measurement,value
B1,binding result,no binding
